Source: the Immune Epitope Database (IEDB)

What was measured:
HLA-C*03:03 = assay: IEDB peptide-MHC binding, purified MHC/direct/fluorescence; filed as Kd, often an IC50 or EC50 that approximates it; ≥ and ≤ were set here for values at or beyond the usual limits of such assays; settings: source organism: Rickettsia bellii RML369-C
HLA-C*05:01 = assay: as above; settings: source organism: Rickettsia bellii RML369-C
HLA-C*07:02 = assay: as above; settings: source organism: Rickettsia bellii RML369-C
HLA-C*08:02 = assay: as above; settings: source organism: Rickettsia bellii RML369-C
HLA-C*12:03 = assay: as above; settings: source organism: Rickettsia bellii RML369-C
HLA-C*14:02 = assay: as above; settings: source organism: Rickettsia bellii RML369-C
HLA-C*15:02 = assay: as above; settings: source organism: Rickettsia bellii RML369-C
HLA-A*68:23 = assay: IEDB peptide-MHC binding, purified MHC/competitive/fluorescence; filed as Kd, often an IC50 or EC50 that approximates it; ≥ and ≤ were set here for values at or beyond the usual limits of such assays; settings: source organism: Rickettsia bellii RML369-C
HLA-B*15:02 = assay: as above; settings: source organism: Rickettsia bellii RML369-C
HLA-B*15:42 = assay: as above; settings: source organism: Rickettsia bellii RML369-C
HLA-B*27:20 = assay: as above; settings: source organism: Rickettsia bellii RML369-C
HLA-B*45:06 = assay: as above; settings: source organism: Rickettsia bellii RML369-C
HLA-B*83:01 = assay: as above; settings: source organism: Rickettsia bellii RML369-C
HLA-C*06:02 = assay: as above; settings: source organism: Rickettsia bellii RML369-C
HLA-A*02:01 = assay: as above; settings: source organism: Xanthobacter autotrophicus Py2
HLA-A*02:12 = assay: as above; settings: source organism: Xanthobacter autotrophicus Py2
HLA-A*03:01 = assay: as above; settings: source organism: Xanthobacter autotrophicus Py2
HLA-A*25:01 [1] = assay: as above; settings: source organism: Xanthobacter autotrophicus Py2
HLA-A*26:01 = assay: as above; settings: source organism: Xanthobacter autotrophicus Py2
HLA-A*29:02 [2] = assay: as above; settings: source organism: Xanthobacter autotrophicus Py2
HLA-A*68:02 = assay: as above; settings: source organism: Xanthobacter autotrophicus Py2
HLA-A*69:01 = assay: as above; settings: source organism: Xanthobacter autotrophicus Py2
HLA-A*80:01 [3] = assay: as above; settings: source organism: Xanthobacter autotrophicus Py2
HLA-B*15:17 = assay: as above; settings: source organism: Xanthobacter autotrophicus Py2
HLA-B*18:01 = assay: as above; settings: source organism: Xanthobacter autotrophicus Py2
HLA-B*27:03 = assay: as above; settings: source organism: Xanthobacter autotrophicus Py2
HLA-B*46:01 = assay: as above; settings: source organism: Xanthobacter autotrophicus Py2
HLA-B*51:01 [4] = assay: as above; settings: source organism: Xanthobacter autotrophicus Py2
HLA-B*57:01 = assay: as above; settings: source organism: Xanthobacter autotrophicus Py2
HLA-A*01:01 = assay: IEDB peptide-MHC binding, purified MHC/direct/fluorescence; filed as Kd, often an IC50 or EC50 that approximates it; ≥ and ≤ were set here for values at or beyond the usual limits of such assays; settings: source organism: Orthohantavirus andesense
HLA-A*25:01 [5] = assay: as above; settings: source organism: Orthohantavirus tulaense
HLA-A*29:02 [6] = assay: as above; settings: source organism: Orthohantavirus tulaense
HLA-A*80:01 [7] = assay: as above; settings: source organism: Orthohantavirus andesense
HLA-B*07:02 = assay: as above; settings: source organism: Orthohantavirus tulaense
HLA-B*40:01 = assay: as above; settings: source organism: Orthohantavirus tulaense
HLA-B*51:01 [8] = assay: as above; settings: source organism: Orthohantavirus tulaense

For FAYKTGSSM, the Kd (HLA-C*03:03) was at most 1 nM, the Kd (HLA-C*05:01) was 1480 nM and the Kd (HLA-C*07:02) was 876 nM. The Kd (HLA-C*08:02) was 90 nM, the Kd (HLA-C*12:03) was at most 1 nM and the Kd (HLA-C*14:02) was 114 nM. It also gave a Kd (HLA-C*15:02) of 4 nM, a Kd (HLA-A*68:23) of 51.2 nM and a Kd (HLA-B*15:02) of 12.7 nM. The Kd (HLA-B*15:42) was at least 5000 nM, the Kd (HLA-B*27:20) was 23.4 nM and the Kd (HLA-B*45:06) was at least 5000 nM. For the same sequence, the Kd (HLA-B*83:01) was at least 5000 nM and the Kd (HLA-C*06:02) was 125 nM.
GQMYNMNTL was tested, and the Kd (HLA-A*02:01) was at least 20000 nM, the Kd (HLA-A*02:12) was 1.4 nM and the Kd (HLA-A*03:01) was at least 20000 nM. It also gave a Kd (HLA-A*25:01 [1]) of at least 20000 nM, a Kd (HLA-A*26:01) of at least 20000 nM and a Kd (HLA-A*29:02 [2]) of at least 20000 nM. It also gave a Kd (HLA-A*68:02) of at least 20000 nM, a Kd (HLA-A*69:01) of at least 20000 nM and a Kd (HLA-A*80:01 [3]) of at least 20000 nM. It also gave a Kd (HLA-B*15:17) of at least 20000 nM, a Kd (HLA-B*18:01) of at least 20000 nM and a Kd (HLA-B*27:03) of at least 20000 nM. For the same sequence, the Kd (HLA-B*46:01) was at least 20000 nM, the Kd (HLA-B*51:01 [4]) was at least 20000 nM and the Kd (HLA-B*57:01) was at least 20000 nM.
With ATATWFQYY the Kd (HLA-A*01:01) was 16.3 nM, the Kd (HLA-A*25:01 [5]) was at least 20000 nM and the Kd (HLA-A*29:02 [6]) was at most 1 nM. It also gave a Kd (HLA-A*80:01 [7]) of 14.2 nM, a Kd (HLA-B*07:02) of at least 20000 nM and a Kd (HLA-B*40:01) of at least 20000 nM. The Kd (HLA-B*51:01 [8]) was at least 20000 nM.
